Tests used:
MS2 coat protein [1] = assay: apparent KD of MS2 coat protein, switch OFF state (with FMN for OFF switches, without FMN for ON switches); designed switch direction (-1 OFF switch, 1 ON switch): -1; higher = weaker reporter binding; conditions: FMN input: 0 or 200 uM; Eterna round: R93 (includes R88 designs)
Method in brief: (§1)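 The buffer was 100 mM Tris-HCl pH 7.5 with 80 mM KCl and 4 mM MgCl2, used without or with constant ligand. In it, RNA switches transcribed on-chip from Illumina sequencing clusters were titrated with SNAP-549-labelled MS2 coat protein in twofold steps from 0.7 or 1.5 nM to 3 µM. Apparent KD for each design is the median of its normalised cluster binding-curve fits.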

MS2 coat protein [2] = assay: apparent KD of MS2 coat protein, switch ON state; designed switch direction (-1 OFF switch, 1 ON switch): -1; higher = weaker reporter binding; conditions: FMN input: 0 or 200 uM; Eterna round: R93 (includes R88 designs)
Method in brief: as §1

Sequence	apparent KD of MS2 coat protein (MS2 coat protein [1])	apparent KD of MS2 coat protein (MS2 coat protein [2])
AAGAACCAAGGAUAUACAUGAGGAUCACCCAUGUAAAAGAAAGAAAAGGGAAAGAAAAGUAGAAGGUGGAAGAA [Userkheperure Seti II]	27.3 nM	25.7 nM
UUCGCACAUGAGGAUCACCCAUGUCAGGAUAUCGUGGCGGGAAAAACCGGGAAACGCACGAGAAGGGACACACA [EX1 Malc#18 Mod 15 - Jieux - Exclusion 1]	51.5 nM	47.3 nM
AAAAGUGGAGGAUAUACAUGAGGAUCACCCAUGUGUAAAAAUAAAAACACAAAAGAAAGUAGAAGGCCACAAAA [Ex 3 May 9]	55.2 nM	24.1 nM
AAAAUACAUGAGGAUCACCCAUGUGAGGAUAUUAGAAAGGGAAUAAAAUAACUUAAACUAAGAAGGCACAAAAA [Ex 1 May 28]	27.7 nM	18.2 nM
CUCAAGUAAGGAUAUUCAAGAAAAGAAGAGAAAGAAAAGAAGAAGAAGGUACAUGAGGAUCACCCAUGUAAGAA [EteRNA is fun!]	35.3 nM	44.6 nM
AAAAAGCGAGGAUAUACAUGAGGAUCACCCAUGUGAAAAAAAAAAAAAAAAAAAAAAAGUAGAAGGCGCAAAAA [GC super strong! + G boost]	39.2 nM	46.4 nM
AAAAAGCGAGGAUAUACAUGAGGAUCACCCAUGUCAAAAGAAUAUAAAGAAAUAGGAAGUAGAAGGCGCAAAAA [Ex 3 #3]	56.4 nM	67.1 nM
AAGAAGUGAGGAUAUACAUGAGGAUCACCCAUGUAAAAGAAAGAAGGGAAAGAGAAAAGUAGAAGGCACAAGAA [Usermaatre-setepenamun Osorkon III]	31.3 nM	28.5 nM
CUCUUGUAAGGAUAUCACCACACAAAAAAAAAAAAGUGUGGUGAGAAGGUACAUGAGGAUCACCCAUGUACUAA [Banishment 12 - Jieux - Exclusion 4]	25.2 nM	23.6 nM
AAAAAGUGAGGAUAUUCGGAUAGGAAAACGAAAACCUAUCCGAAGAAGGCACAUGAGGAUCACCCAUGUGGGAA [67% Ecls-II - Early G + late G segment 3]	75.9 nM	52.6 nM
AGUUGGCGAGGAUAUACAUGAGGAUCACCCAUGUGAAAAAAGGGCUCGAAAGAGAAAAGUAGAAGGCGCUGACA [73%, Moding Norbert Elias, 7]	98.4 nM	24.8 nM
AAGAAGUGAGGAUAUCGAAGACAGACGAAAAGUCUGUCAAACGAGAAGGCACAUGAGGAUCACCCAUGUGGAAG [Mat - Exaclusion 4 - Eli mod - D79]	36.8 nM	30.6 nM
AAAUAGCAAGGAUAUACAUGAGGAUCACCCAUGUAAGGAUGGUAAGUAUUAGAAGAAAGUAGAAGGUGCAAAUA [Ex 3 Tesla 5]	55.3 nM	33.6 nM
AAGAACCGAGGAUAUACUAAAGAAAUGAAAAGAAAUAAAGAACAUGAGGAUCACCCAUGUAGAAGGCGGAAGAA [Nebefawre]	23.4 nM	27.4 nM
AAAAAGUCAGGAUAUACAUGAGGAUCACCCAUGUGAAAGAACGAUUAACGAAAAGCAAGUAGAAGGGACAAAAA [Ruby 79]	23.7 nM	22.1 nM
AAGAAAGGAGGAUAUACAUGAGGAUCACCCAUGUAAAAGAAAGAAAAGGGAAAGAAAAGUAGAAGGCCUAAGAA [Usermaatre-meryamun Ramesses III]	28.7 nM	39.2 nM
AACAGUACAGGAUAUACAUGAGGAUCACCCAUGUGAAAAUUAAGUGGAAAACCACAAAGUAGAAGGGUACUGAA [Mat - Exclusion 3 - Eli mod - D58]	61.7 nM	21.4 nM
CAGUACUGAGGAUAUACAUGAGGAUCACCCAUGUGUAAAAGCUAGGAAACUAGCAAAUGUAGAAGGCAGUACUG [Ex3: 816]	36.5 nM	13.8 nM
GAAAAUGGAGGAUAUACAUGAGGAUCACCCAUGUGUAUAAAAAAAUACACAAAAGAAAGUAGAAGGCCAUAAAG [Mat - Exclusion 3 - Mayanna mod - D101]	114 nM	31.4 nM
AACUGACAUGAGGAUCACCCAUGUCAGGAUAUGCUUCAUAAAACAAAAACAAAAUGAUGCAGAAGGGACAUGAA [Design 26 :P Sub-opt 2]	14.6 nM	16.3 nM
UAAAGGCGAGGAUAUACAUGAGGAUCACCCAUGUGAAUAAAUAAUAAAAUAAAAUAAAGUAGAAGGCGCAAUAA [LROPPY Exclusion 3 - v03_deltaG=1.9 break up As]	43.2 nM	53.9 nM
AAAAAACAUGAGGAUCACCCAUGUCAGGAUAUCCGGAAAAAAAAAAAAAAAAGGCGUUGGAGAAGGGACAUUCC [Chica Displaced 8 - Jieux - Exclusion 1]	36.8 nM	28.7 nM
GCUGUGCAAGGAUAUACAUGAGGAUCACCCAUGUGAGAGAAAAAAGUGAGAAAGAAAAGUAGAAGGUGCGUAGG [salish99-ex3-99]	43.3 nM	36.5 nM

Sequence	apparent KD of MS2 coat protein (MS2 coat protein [1])	apparent KD of MS2 coat protein (MS2 coat protein [2])
AACAAGACAGGAUAUACAUGAGGAUCACCCAUGUGAGAAUAAAGUGGCGUAACACAAAGUAGAAGGGUCAUGGA [Ruby 6]	55.5 nM	32.6 nM
AAUAAGUCAGGAUAUACUAAAGAAAUGAAAAGGGAUAAAGAACAUGAGGAUCACCCAUGUAGAAGGGACAAUAA [Sakir-Har]	51.6 nM	93.2 nM
CUCAAGUAAGGAUAUUUAUGAAAUGAAGUGAAAGAAAAGAAAAAGAAGGUACAUGAGGAUCACCCAUGUUAGAA [EteRNA is fun!]	19.6 nM	32.8 nM
AGGAAACAUGAGGAUCACCCAUGUGAGGAUAUGAACGAAAAUAAAUAAAAAUAAAAGUUCAGAAGGUACAAAAA [66%, Wbt, 5]	36.8 nM	23.6 nM
AAGAAGUCAGGAUAUGGUGCUCGUCACUUGCGUGAUGAGUACCAGAAGGGACAUGAGGAUCACCCAUGUAAAGA [Opal 21]	60 nM	47.1 nM
CAGUACUGAGGAUAUACAUGAGGAUCACCCAUGUGUUCCAGCUAGGAAACUAGCAAAAGUAGAAGGCAGUACUG [Ex3: 828]	343 nM	24.6 nM
AAGAAGCUAGGAUAUACUAACGAAACUAAUGCAUAGAUAAAACAUGAGGAUCACCCAUGUAGAAGGAGCAGAAU [JR_Exc002_Sub014]	20.6 nM	21.6 nM
AAAAAGAUAGGAUAUACGAACAUGUCAAAAGACGUGAAGGGACAUGAGGAUCACCCAUGUAGAAGGGUUAAAAA [JL Wide Open 38]	66.6 nM	155 nM
AAAAUACAUGAGGAUCACCCAUGUGAGGAUAUUAGAAAGGGAAUAAAAUAACCCAAACUAAGAAGGCACAAAAA [Ex 1 May 27]	35.3 nM	28.5 nM
AGGAAACAUGAGGAUCACCCAUGUGAGGAUAUAGGAAAGAAAAGAAAAGAAAGAAGAAUUAGAAGGCACAAGAA [Djet]	14.9 nM	20.5 nM
AAAAAGAUAGGAUAUACGUACAUGUCGAAAGACGUGAAGGGACAUGAGGAUCACCCAUGUAGAAGGGUUAAAAA [Mat - Exclusion 2 - JL mod - D91]	52.4 nM	185 nM
AAGAAGUCAGGAUAUGCUAAAGAAAUAAAAAUAAAUAAAGAACAUGAGGAUCACCCAUGUAGAAGGGACAAGAA [Sewadjkare Hori]	33.3 nM	72.1 nM
AAUAAACAUGAGGAUCACCCAUGUCAGGAUAUGCAUCUAACCUAAUAACAUAAAUACAGCAGAAGGGACUAAUA [JR_Exc001_Sub602]	25 nM	26.8 nM
AAAACUAGAGGAUAUACGUACAUGUCAAAAGACGUGAAGGGACAUGAGGAUCACCCAUGUAGAAGGCUAGAAAA [JL Stem Breaker 9]	104 nM	45.2 nM
AGUUGGCGAGGAUAUACAUGAGGAUCACCCAUGUGAGAGUAAAAAGUGAGAAAGAGAAGUAGAAGGCGCUAACA [Ruby 53]	167 nM	37.4 nM
GCUUGGGUAGGAUAUACAUGAGGAUCACCCAUGUGAGAGAAAAAAGUGAGAAAGAAAAGUAGAAGGACUUGAGG [salish99-ex3-83]	174 nM	177 nM
AGCACGUCAGGAUAUACGAACACAAAGGGUAACAACAAGGGACAUGAGGAUCACCCAUGUAGAAGGGACAAGCA [Diamond 95]	79.2 nM	73.5 nM
AAAAAGGGAGGAUAUACAGGAGGUCAAAAAAAAAAAAAAAAACAUGAGGAUCACCCAUGUAGAAGGCUUAAAAA [Ecls2-III]	27.3 nM	26.7 nM
UAAAGACAUGAGGAUCACCCAUGUGAGGAUAUGUGAGACAACAGAACAUCAAGUACAAGCAGAAGGCACAGAAA [JR_Exc001_Sub019]	62.7 nM	51.8 nM
AACAGUACAGGAUAUACAUGAGGAUCACCCAUGUGAGAAUUAAGUAGAUUGCCACAAAGUAGAAGGGUACUGGA [Ruby 98]	80.9 nM	59.3 nM
AAGAAGUGAGGAUAUCGAAGACAAAAAAAAAAAAAGUCGAACGAGAAGGCACAUGAGGAUCACCCAUGUAAGAA [shorter stack]	40.3 nM	37.7 nM
AAGGGACAUGAGGAUCACCCAUGUUAGGAUAUCGGAAAAGGAAAAAAAAAAAAGAAGACGAGAAGGGACACCAA	48.8 nM	59.5 nM
